Measurements reported in IntAct's records for PubMed 17003044.

B1: BAR/IMD domain-containing adapter protein 2 (Homo sapiens), Q9UQB8 (parent)
chain: MSLSRSEEMHRLTENVYKTIMEQFNPSLRNFIAMGKNYEKALAGVTYAAKGYFDALVKMGELASESQGSKELGDVLFQMAEVHRQIQNQLEEMLKSFHNELLTQLEQKVELDSRYLSAALKKYQTEQRSKGDALDKCQAELKKLRKKSQGSKNPQKYSDKELQYIDAISNKQGELENYVSDGYKTALTEERRRFCFLVEKQCAVAKNSAAYHSKGKELLAQKLPLWQQACADPSKIPERAVQLMQQVASNGATLPSALSASKSNLVISDPIPGAKPLPVPPELAPFVGRMSAQESTPIMNGVTGPDGEDYSPWADRKAAQPKSLSPPQSQSKLSDSYSNTLPVRKSVTPKNSYATTENKTLPRSSSMAAGLERNGRMRVKAIFSHAAGDNSTLLSFKEGDLITLLVPEARDGWHYGESEKTKMRGWFPFSYTRVLDSDGSDRLHMSLQQGKSSSTGNLLDKDDLAIPPPDYGAASRAFPAQTASGFKQRPYSVAVPAFSQGLDDYGARSMSRNPFAHVQLKPTVTNDRCDLSAQGPEGREHGDGSARTLAGR

Variants of: B1
Conditions: with rac1_human RAC1, P63000

Row | Variant | effect of a mutation on the interaction
1 | R11E;Q23E | decreasing interaction strength
2 | Q23E | decreasing interaction strength
3 | K142A;K143A;R145A;K146A;K147A | decreasing interaction strength
4 | K143E | decreasing interaction strength
5 | K143E;K147E | decreasing interaction strength
